Results reported in patent US20250340631A1 (HARBOUR BIOMED SHANGHAI, published 2025).

B1: PR005518 (bispecific antibody)
chain 1: EVQLVESGGGLVQPGGSLRLSCAASGFTFSSYWMHWVRQVPGKGLVWVSRINSDGSRTIYADSVKGRFTISRDNAKNTLYLQMNSLRAEDTAVYYCARGEDHDILTGYPIRGQGTTVTVSSASEPKSSDKTHTCPPCPAPEAAGGPSVFLFPPKPKDTLMISRTPEVTCVVVDVSHEDPEVKFNWYVDGVEVHNAKTKPREEQYNSTYRVVSVLTVLHQDWLNGKEYKCKVSNKALPAPIEKTISKAKGQPREPQVCTLPPSREEMTKNQVSLSCAVKGFYPSDIAVEWESNGQPENNYKTTPPVLDSDGSFFLVSKLTVDKSRWQQGNVFSCSVMHEALHNHYTQKSLSLSPGK
chain 2: not shown
light: QAVVTQEPSLTVSPGGTVTLTCRSSTGAVTTSNYANWVQQKPGQAPRGLIGGTNKRAPWTPARFSGSLLGDKAALTLLGAQPEDEAEYFCALWYSNLWVFGGGTKLTVLGQPKAAPSVTLFPPSSEELQANKATLVCLISDFYPGAVTVAWKADSSPVKAGVETTTPSKQSNNKYAASSYLSLTPEQWKSHRSYSCQVTHEGSTVEKTVAPTECS
notes: structure 2 (2+1 HCAb-Fc-Fab, CD3 VH-CH1 at the C-terminus of one HCAb chain); PR001848 / PR004533; LALA
B2: PR005525 (bispecific antibody, human IgG1, lambda, L234A L235A)
chain: EVQLVESGGGLVQPGGSLRLSCAASGFTFSSYWMHWVRQVPGKGLVWVSRINSDGSRTIYADSVKGRFTISRDNAKNTLYLQMNSLRAEDTAVYYCARGEDHDILTGYPIRGQGTTVTVSSGGGGSGGGGSGGGGSEVQLVESGGGLVQPGGSLRLSCAASGFTFSSYWMHWVRQVPGKGLVWVSRINSDGSRTIYADSVKGRFTISRDNAKNTLYLQMNSLRAEDTAVYYCARGEDHDILTGYPIRGQGTTVTVSSGGGGSGGGGSGGGGSEVQLVESGGGLVQPGGSLRLSCAASGFTFSSYWMHWVRQVPGKGLVWVSRINSDGSRTIYADSVKGRFTISRDNAKNTLYLQMNSLRAEDTAVYYCARGEDHDILTGYPIRGQGTTVTVSSASEPKSSDKTHTCPPCPAPEAAGGPSVFLFPPKPKDTLMISRTPEVTCVVVDVSHEDPEVKFNWYVDGVEVHNAKTKPREEQYNSTYRVVSVLTVLHQDWLNGKEYKCKVSNKALPAPIEKTISKAKGQPREPQVCTLPPSREEMTKNQVSLSCAVKGFYPSDIAVEWESNGQPENNYKTTPPVLDSDGSFFLVSKLTVDKSRWQQGNVFSCSVMHEALHNHYTQKSLSLSPGK
heavy: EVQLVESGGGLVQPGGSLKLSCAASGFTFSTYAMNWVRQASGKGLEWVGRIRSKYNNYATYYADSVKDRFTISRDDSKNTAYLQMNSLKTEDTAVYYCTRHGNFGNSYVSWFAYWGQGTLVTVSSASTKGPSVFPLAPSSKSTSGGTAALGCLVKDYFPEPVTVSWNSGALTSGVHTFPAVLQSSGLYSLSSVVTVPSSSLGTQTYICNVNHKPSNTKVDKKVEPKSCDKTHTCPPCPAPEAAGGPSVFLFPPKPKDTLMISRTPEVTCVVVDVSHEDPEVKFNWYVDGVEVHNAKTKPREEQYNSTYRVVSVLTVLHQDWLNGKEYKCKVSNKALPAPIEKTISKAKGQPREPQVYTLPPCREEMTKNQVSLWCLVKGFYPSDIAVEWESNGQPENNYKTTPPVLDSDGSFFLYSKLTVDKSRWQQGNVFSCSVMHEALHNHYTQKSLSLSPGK
light: QAVVTQEPSLTVSPGGTVTLTCRSSTGAVTTSNYANWVQQKPGQAPRGLIGGTNKRAPWTPARFSGSLLGDKAALTLLGAQPEDEAEYFCALWYSNLWVFGGGTKLTVLGQPKAAPSVTLFPPSSEELQANKATLVCLISDFYPGAVTVAWKADSSPVKAGVETTTPSKQSNNKYAASSYLSLTPEQWKSHRSYSCQVTHEGSTVEKTVAPTECS
notes: structure 7 (3+1 Fab-Fc-VH-VH-VH); PR003886 / PR004533; LALA
B3: PR005522 (bispecific antibody, human IgG1, lambda, L234A L235A)
chain: EVQLVESGGGLVQPGGSLRLSCAASGFTFSSYWMHWVRQVPGKGLVWVSRINSDGSRTIYADSVKGRFTISRDNAKNTLYLQMNSLRAEDTAVYYCARGEDHDILTGYPIRGQGTTVTVSSGGGGSGGGGSGGGGSEVQLVESGGGLVQPGGSLRLSCAASGFTFSSYWMHWVRQVPGKGLVWVSRINSDGSRTIYADSVKGRFTISRDNAKNTLYLQMNSLRAEDTAVYYCARGEDHDILTGYPIRGQGTTVTVSSASEPKSSDKTHTCPPCPAPEAAGGPSVFLFPPKPKDTLMISRTPEVTCVVVDVSHEDPEVKFNWYVDGVEVHNAKTKPREEQYNSTYRVVSVLTVLHQDWLNGKEYKCKVSNKALPAPIEKTISKAKGQPREPQVCTLPPSREEMTKNQVSLSCAVKGFYPSDIAVEWESNGQPENNYKTTPPVLDSDGSFFLVSKLTVDKSRWQQGNVFSCSVMHEALHNHYTQKSLSLSPGK
heavy: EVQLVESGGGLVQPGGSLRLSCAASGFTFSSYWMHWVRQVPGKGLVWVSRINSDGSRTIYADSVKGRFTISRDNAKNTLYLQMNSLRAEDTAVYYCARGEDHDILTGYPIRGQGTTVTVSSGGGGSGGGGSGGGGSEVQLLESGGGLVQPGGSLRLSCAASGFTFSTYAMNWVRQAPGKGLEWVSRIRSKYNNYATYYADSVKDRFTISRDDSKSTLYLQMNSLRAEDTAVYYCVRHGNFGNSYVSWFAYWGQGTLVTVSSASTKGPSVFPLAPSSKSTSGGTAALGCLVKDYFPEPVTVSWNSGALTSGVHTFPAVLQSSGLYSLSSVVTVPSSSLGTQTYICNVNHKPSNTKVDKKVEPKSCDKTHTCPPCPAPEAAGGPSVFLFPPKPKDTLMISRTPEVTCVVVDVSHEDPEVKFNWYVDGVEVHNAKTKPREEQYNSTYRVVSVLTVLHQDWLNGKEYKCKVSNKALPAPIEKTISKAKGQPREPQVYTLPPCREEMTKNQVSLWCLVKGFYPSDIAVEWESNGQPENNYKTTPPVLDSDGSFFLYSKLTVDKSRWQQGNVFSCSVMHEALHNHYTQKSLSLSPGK
light: QAVVTQEPSLTVSPGGTVTLTCRSSTGAVTTSNYANWVQQKPGQAPRGLIGGTNKRAPWTPARFSGSLLGDKAALTLLGAQPEDEAEYFCALWYSNLWVFGGGTKLTVLGQPKAAPSVTLFPPSSEELQANKATLVCLISDFYPGAVTVAWKADSSPVKAGVETTTPSKQSNNKYAASSYLSLTPEQWKSHRSYSCQVTHEGSTVEKTVAPTECS
notes: PR001848 / PR004533; LALA
B4: PR005519 (bispecific antibody)
chain 1: EVQLVESGGGLVQPGGSLRLSCAASGFTFSSYWMHWVRQVPGKGLVWVSRINSDGSRTIYADSVKGRFTISRDNAKNTLYLQMNSLRAEDTAVYYCARGEDHDILTGYPIRGQGTTVTVSSASEPKSSDKTHTCPPCPAPEAAGGPSVFLFPPKPKDTLMISRTPEVTCVVVDVSHEDPEVKFNWYVDGVEVHNAKTKPREEQYNSTYRVVSVLTVLHQDWLNGKEYKCKVSNKALPAPIEKTISKAKGQPREPQVCTLPPSREEMTKNQVSLSCAVKGFYPSDIAVEWESNGQPENNYKTTPPVLDSDGSFFLVSKLTVDKSRWQQGNVFSCSVMHEALHNHYTQKSLSLSPGK
chain 2: not shown
chain 3: EVQLLESGGGLVQPGGSLRLSCAASGFTFSTYAMNWVRQAPGKGLEWVSRIRSKYNNYATYYADSVKDRFTISRDDSKSTLYLQMNSLRAEDTAVYYCVRHGNFGNSYVSWFAYWGQGTLVTVSSASTKGPSVFPLAPSSKSTSGGTAALGCLVKDYFPEPVTVSWNSGALTSGVHTFPAVLQSSGLYSLSSVVTVPSSSLGTQTYICNVNHKPSNTKVDKKVEPKSC
notes: structure 3 (2+1 HCAb-Fc-Fab, CD3 VL-CL at the C-terminus of one HCAb chain; third chain is CD3 VH-CH1); PR001848 / PR004533; LALA
B5: PR005354 (bispecific antibody, human IgG1, lambda, L234A L235A)
chain: EVQLVESGGGLVQPGGSLRLSCAASGFTFSSYWMHWVRQVPGKGLVWVSRINSDGSRTIYADSVKGRFTISRDNAKNTLYLQMNSLRAEDTAVYYCARGEDHDILTGYPIRGQGTTVTVSSGGGGSGGGGSGGGGSEVQLVESGGGLVQPGGSLRLSCAASGFTFSSYWMHWVRQVPGKGLVWVSRINSDGSRTIYADSVKGRFTISRDNAKNTLYLQMNSLRAEDTAVYYCARGEDHDILTGYPIRGQGTTVTVSSASEPKSSDKTHTCPPCPAPEAAGGPSVFLFPPKPKDTLMISRTPEVTCVVVDVSHEDPEVKFNWYVDGVEVHNAKTKPREEQYNSTYRVVSVLTVLHQDWLNGKEYKCKVSNKALPAPIEKTISKAKGQPREPQVCTLPPSREEMTKNQVSLSCAVKGFYPSDIAVEWESNGQPENNYKTTPPVLDSDGSFFLVSKLTVDKSRWQQGNVFSCSVMHEALHNHYTQKSLSLSPGK
heavy: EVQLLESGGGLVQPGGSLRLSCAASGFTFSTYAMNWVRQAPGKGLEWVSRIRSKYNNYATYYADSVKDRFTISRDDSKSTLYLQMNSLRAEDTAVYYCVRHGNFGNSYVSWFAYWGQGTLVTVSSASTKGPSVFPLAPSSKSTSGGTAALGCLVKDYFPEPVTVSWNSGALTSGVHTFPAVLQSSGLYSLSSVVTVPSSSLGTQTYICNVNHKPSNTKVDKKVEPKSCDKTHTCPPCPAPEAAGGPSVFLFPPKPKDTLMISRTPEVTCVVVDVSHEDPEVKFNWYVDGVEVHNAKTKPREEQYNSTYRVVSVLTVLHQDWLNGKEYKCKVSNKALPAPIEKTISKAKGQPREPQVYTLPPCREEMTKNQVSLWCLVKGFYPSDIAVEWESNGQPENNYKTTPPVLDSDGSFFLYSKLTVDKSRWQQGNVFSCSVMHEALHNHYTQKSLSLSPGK
light: QAVVTQEPSLTVSPGGTVTLTCRSSTGAVTTSNYANWVQQKPGQAPRGLIGGTNKRAPWTPARFSGSLLGDKAALTLLGAQPEDEAEYFCALWYSNLWVFGGGTKLTVLGQPKAAPSVTLFPPSSEELQANKATLVCLISDFYPGAVTVAWKADSSPVKAGVETTTPSKQSNNKYAASSYLSLTPEQWKSHRSYSCQVTHEGSTVEKTVAPTECS
notes: structure 1; CD3 Fab from PR001848, CLDN18.2 VH from PR004533; LALA
B6: PR005399 (bispecific antibody, human IgG1, lambda, L234A L235A)
chain: EVQLVESGGGLVQPGGSLRLSCAASGFTFSSYWMHWVRQVPGKGLVWVSRISSAGSRTIYADSVKGRFTISRDNAKNTLYLQMNSLRAEDTAVYYCARGEDHDILTGYPIRGQGTTVTVSSGGGGSGGGGSGGGGSEVQLVESGGGLVQPGGSLRLSCAASGFTFSSYWMHWVRQVPGKGLVWVSRISSAGSRTIYADSVKGRFTISRDNAKNTLYLQMNSLRAEDTAVYYCARGEDHDILTGYPIRGQGTTVTVSSASEPKSSDKTHTCPPCPAPEAAGGPSVFLFPPKPKDTLMISRTPEVTCVVVDVSHEDPEVKFNWYVDGVEVHNAKTKPREEQYNSTYRVVSVLTVLHQDWLNGKEYKCKVSNKALPAPIEKTISKAKGQPREPQVCTLPPSREEMTKNQVSLSCAVKGFYPSDIAVEWESNGQPENNYKTTPPVLDSDGSFFLVSKLTVDKSRWQQGNVFSCSVMHEALHNHYTQKSLSLSPGK
heavy: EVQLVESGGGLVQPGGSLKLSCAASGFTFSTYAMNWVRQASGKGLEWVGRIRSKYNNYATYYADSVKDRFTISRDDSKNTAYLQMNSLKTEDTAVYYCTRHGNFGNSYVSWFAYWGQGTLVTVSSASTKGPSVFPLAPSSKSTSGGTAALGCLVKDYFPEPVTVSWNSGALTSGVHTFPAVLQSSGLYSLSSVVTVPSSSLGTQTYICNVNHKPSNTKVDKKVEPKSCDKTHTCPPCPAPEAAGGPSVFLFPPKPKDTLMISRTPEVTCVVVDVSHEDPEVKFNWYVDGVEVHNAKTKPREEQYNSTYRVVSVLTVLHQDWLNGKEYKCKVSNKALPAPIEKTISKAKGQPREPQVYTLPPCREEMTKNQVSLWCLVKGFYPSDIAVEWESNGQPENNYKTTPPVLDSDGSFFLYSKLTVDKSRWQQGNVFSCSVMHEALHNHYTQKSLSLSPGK
light: QAVVTQEPSLTVSPGGTVTLTCRSSTGAVTTSNYANWVQQKPGQAPRGLIGGTNKRAPWTPARFSGSLLGDKAALTLLGAQPEDEAEYFCALWYSNLWVFGGGTKLTVLGQPKAAPSVTLFPPSSEELQANKATLVCLISDFYPGAVTVAWKADSSPVKAGVETTTPSKQSNNKYAASSYLSLTPEQWKSHRSYSCQVTHEGSTVEKTVAPTECS
notes: structure 1; CD3 Fab from PR003886, CLDN18.2 VH from PR007243; LALA
B7: PR007082 (bispecific antibody, human IgG1, lambda)
chain: EVQLVESGGGLVQPGGSLRLSCAASGFTFSSYWMHWVRQVPGKGLVWVSRINHDSSRTIYADSVKGRFTISRDNAKNTLYLQMNSLRAEDTAVYYCARGEDHDILTGYPIRGQGTTVTVSSGGGGSGGGGSGGGGSEVQLVESGGGLVQPGGSLRLSCAASGFTFSSYWMHWVRQVPGKGLVWVSRINHDSSRTIYADSVKGRFTISRDNAKNTLYLQMNSLRAEDTAVYYCARGEDHDILTGYPIRGQGTTVTVSSASEPKSSDKTHTCPPCPAPEAAGAPSVFLFPPKPKDTLMISRTPEVTCVVVDVSHEDPEVKFNWYVDGVEVHNAKTKPREEQYNSTYRVVSVLTVLHQDWLNGKEYKCKVSNKALPAPIEKTISKAKGQPREPQVCTLPPSREEMTKNQVSLSCAVKGFYPSDIAVEWESNGQPENNYKTTPPVLDSDGSFFLVSKLTVDKSRWQQGNVFSCSVMHEALHNHYTQKSLSLSPGK
heavy: EVQLVESGGGLVQPGGSLKLSCAASGFTFSTYAMNWVRQASGKGLEWVGRIRSKYNNYATYYADSVKDRFTISRDDSKNTAYLQMNSLKTEDTAVYYCTRHGNFGNSYVSWFAYWGQGTLVTVSSASTKGPSVFPLAPSSKSTSGGTAALGCLVKDYFPEPVTVSWNSGALTSGVHTFPAVLQSSGLYSLSSVVTVPSSSLGTQTYICNVNHKPSNTKVDKKVEPKSCDKTHTCPPCPAPEAAGAPSVFLFPPKPKDTLMISRTPEVTCVVVDVSHEDPEVKFNWYVDGVEVHNAKTKPREEQYNSTYRVVSVLTVLHQDWLNGKEYKCKVSNKALPAPIEKTISKAKGQPREPQVYTLPPCREEMTKNQVSLWCLVKGFYPSDIAVEWESNGQPENNYKTTPPVLDSDGSFFLYSKLTVDKSRWQQGNVFSCSVMHEALHNHYTQKSLSLSPGK
light: QAVVTQEPSLTVSPGGTVTLTCRSSTGAVTTSNYANWVQQKPGQAPRGLIGGTNKRAPWTPARFSGSLLGDKAALTLLGAQPEDEAEYFCALWYSNLWVFGGGTKLTVLGQPKAAPSVTLFPPSSEELQANKATLVCLISDFYPGAVTVAWKADSSPVKAGVETTTPSKQSNNKYAASSYLSLTPEQWKSHRSYSCQVTHEGSTVEKTVAPTECS
notes: structure 1; CD3 Fab from PR003886, CLDN18.2 VH from PR007248; AAA

Experiments:
[1] = molecular target: T1, human CLDN18.2 (human); test: FACS on NUGC4_D8 cells
T1 construct: the HEK293 line was made with a GenScript plasmid; also called hCLDN18.2
Procedure: (§1) Antibodies were assayed for binding affinity by FACS. Test cells include HEK293/hCLDN18.2, HEK293/hCLDN18.1, NUGC4_D8 and Jurkat cells. […] The cell density was adjusted to 10⁶ cells/mL, and 50 μL of the cell suspension was added to each well of a 96-well plate. Antibodies were diluted to different concentrations with FACS buffer, and 50 μL of the antibody dilution was added to each well of the 96-well plate. After 2 h of incubation at 4° C., the plate was washed twice with FACS buffer. […] After 1 h of incubation at 4° C., the plate was washed twice with FACS buffer. The cells were resuspended in fixative solution, and then the fluorescence of the cells was monitored using an FACS instrument (ACEA NovoCyte).

[2] = molecular target: T1, human CLDN18.2; test: cell-based or functional assay
[3] = molecular target: T2, human CLDN18.1 (human, UniProt P56856 1-261); test: FACS on HEK293/hCLDN18.1 cells
T2 construct: whole, on cells; also called hCLDN18.1
T2 sequence (P56856 whole entry): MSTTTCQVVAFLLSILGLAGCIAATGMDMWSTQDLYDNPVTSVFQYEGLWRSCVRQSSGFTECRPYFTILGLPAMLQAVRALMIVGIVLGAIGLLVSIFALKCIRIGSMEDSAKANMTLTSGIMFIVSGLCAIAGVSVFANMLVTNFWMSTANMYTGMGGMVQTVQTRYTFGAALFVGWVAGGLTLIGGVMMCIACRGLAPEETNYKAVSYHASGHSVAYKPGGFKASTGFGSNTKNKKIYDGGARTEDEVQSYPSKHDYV
Procedure: as §1

[4] = molecular target: T3, human CD3 on Jurkat cells (human, UniProt P07766 23-207); test: FACS on Jurkat cells (CD3)
T3 construct: whole, on cells; on cells it stands in the whole CD3/TCR complex; also called CD3-expressing cells
T3 sequence (P07766 23-207): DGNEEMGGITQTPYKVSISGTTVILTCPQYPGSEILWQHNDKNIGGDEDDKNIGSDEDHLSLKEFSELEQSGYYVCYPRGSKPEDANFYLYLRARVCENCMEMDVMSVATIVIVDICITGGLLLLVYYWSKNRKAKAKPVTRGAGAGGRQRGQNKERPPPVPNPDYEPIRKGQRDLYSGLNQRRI
Procedure: as §1

[5] = molecular target: T3, human CD3 on Jurkat cells; test: FACS on Jurkat cells
Procedure: as §1

[6] = molecular target: CLDN18.2 of SNU620 cells (methionine to leucine at amino acid 149) (human, UniProt P56856-2 1-261); test: cell-based or functional assay
Sequence of CLDN18.2 of SNU620 cells (methionine to leucine at amino acid 149) (P56856 other isoform, or with tags, fused parts or gaps limits assumed): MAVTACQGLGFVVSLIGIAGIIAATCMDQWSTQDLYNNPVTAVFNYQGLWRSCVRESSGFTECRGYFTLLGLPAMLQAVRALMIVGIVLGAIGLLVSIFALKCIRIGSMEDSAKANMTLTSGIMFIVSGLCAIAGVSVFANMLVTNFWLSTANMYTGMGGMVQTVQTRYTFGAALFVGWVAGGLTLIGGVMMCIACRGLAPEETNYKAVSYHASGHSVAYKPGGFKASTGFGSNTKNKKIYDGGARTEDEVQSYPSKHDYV

[7] = molecular target: T1, human CLDN18.2; test: FACS on HEK293/hCLDN18.2 cells

Row | Binder | EC50 [1] | TDCC, Titer EC50 (pM), NUGC4_D8 [2] | binding result [3] | binding result [4] | EC50 [5] | TDCC, Titer EC50 (pM), SNU620 [6] | EC50 [7]
1 | B1 | 20.5 nM | 30.6 pM | no binding | binds | – | – | –
2 | B2 | 12.6 nM | 28.9 pM | no binding | – | 26.8 nM | – | –
3 | B3 | 13.9 nM | 186 pM | no binding | binds | – | – | –
4 | B4 | 13.9 nM | 32.9 pM | no binding | binds | – | 70.5 pM | –
5 | B5 | 12.6 nM | 11 pM | no binding | binds | – | – | –
6 | B6 | – | 14.8 pM | – | – | 81.9 nM | 41.1 pM | 25.3 nM
7 | B7 | 44.2 nM | – | – | – | 41 nM | – | –
